In IntAct's records for PubMed 24125847:

B1: Sarcoplasmic reticulum histidine-rich calcium-binding protein (Homo sapiens), P23327 (parent)
chain: MGHHRPWLHASVLWAGVASLLLPPAMTQQLRGDGLGFRNRNNSTGVAGLSEEASAELRHHLHSPRDHPDENKDVSTENGHHFWSHPDREKEDEDVSKEYGHLLPGHRSQDHKVGDEGVSGEEVFAEHGGQARGHRGHGSEDTEDSAEHRHHLPSHRSHSHQDEDEDEVVSSEHHHHILRHGHRGHDGEDDEGEEEEEEEEEEEEASTEYGHQAHRHRGHGSEEDEDVSDGHHHHGPSHRHQGHEEDDDDDDDDDDDDDDDDVSIEYRHQAHRHQGHGIEEDEDVSDGHHHRDPSHRHRSHEEDDNDDDDVSTEYGHQAHRHQDHRKEEVEAVSGEHHHHVPDHRHQGHRDEEEDEDVSTERWHQGPQHVHHGLVDEEEEEEEITVQFGHYVASHQPRGHKSDEEDFQDEYKTEVPHHHHHRVPREEDEEVSAELGHQAPSHRQSHQDEETGHGQRGSIKEMSHHPPGHTVVKDRSHLRKDDSEEEKEKEEDPGSHEEDDESSEQGEKGTHHGSRDQEDEEDEEEGHGLSLNQEEEEEEDKEEEEEEEDEERREERAEVGAPLSPDHSEEEEEEEEGLEEDEPRFTIIPNPLDRREEAGGASSEEESGEDTGPQDAQEYGNYQPGSLCGYCSFCNRCTECESCHCDEENMGEHCDQCQHCQFCYLCPLVCETVCAPGSYVDYFSSSLYQALADMLETPEP
partner: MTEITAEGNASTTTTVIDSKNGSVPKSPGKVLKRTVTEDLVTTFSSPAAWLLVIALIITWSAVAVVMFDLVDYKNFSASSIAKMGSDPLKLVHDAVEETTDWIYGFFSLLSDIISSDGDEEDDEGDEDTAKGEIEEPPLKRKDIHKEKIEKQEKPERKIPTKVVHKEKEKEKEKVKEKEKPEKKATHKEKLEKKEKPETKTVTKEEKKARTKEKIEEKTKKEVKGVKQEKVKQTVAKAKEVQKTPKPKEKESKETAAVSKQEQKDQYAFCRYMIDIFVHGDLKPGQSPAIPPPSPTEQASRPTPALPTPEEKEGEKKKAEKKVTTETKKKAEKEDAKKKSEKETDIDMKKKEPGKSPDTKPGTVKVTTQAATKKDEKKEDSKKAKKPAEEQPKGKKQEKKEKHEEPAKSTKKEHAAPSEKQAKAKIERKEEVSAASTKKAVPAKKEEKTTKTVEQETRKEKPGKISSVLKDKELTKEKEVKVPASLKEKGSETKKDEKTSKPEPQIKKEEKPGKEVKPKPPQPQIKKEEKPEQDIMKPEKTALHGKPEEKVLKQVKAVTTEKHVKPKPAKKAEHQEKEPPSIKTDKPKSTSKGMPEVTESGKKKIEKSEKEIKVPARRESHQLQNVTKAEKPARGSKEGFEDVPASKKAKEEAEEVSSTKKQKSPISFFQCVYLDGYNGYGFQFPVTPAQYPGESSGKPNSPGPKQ
B2: Sarcoplasmic reticulum histidine-rich calcium-binding protein (Homo sapiens), P23327 (parent)
chain: B1 chain
partner: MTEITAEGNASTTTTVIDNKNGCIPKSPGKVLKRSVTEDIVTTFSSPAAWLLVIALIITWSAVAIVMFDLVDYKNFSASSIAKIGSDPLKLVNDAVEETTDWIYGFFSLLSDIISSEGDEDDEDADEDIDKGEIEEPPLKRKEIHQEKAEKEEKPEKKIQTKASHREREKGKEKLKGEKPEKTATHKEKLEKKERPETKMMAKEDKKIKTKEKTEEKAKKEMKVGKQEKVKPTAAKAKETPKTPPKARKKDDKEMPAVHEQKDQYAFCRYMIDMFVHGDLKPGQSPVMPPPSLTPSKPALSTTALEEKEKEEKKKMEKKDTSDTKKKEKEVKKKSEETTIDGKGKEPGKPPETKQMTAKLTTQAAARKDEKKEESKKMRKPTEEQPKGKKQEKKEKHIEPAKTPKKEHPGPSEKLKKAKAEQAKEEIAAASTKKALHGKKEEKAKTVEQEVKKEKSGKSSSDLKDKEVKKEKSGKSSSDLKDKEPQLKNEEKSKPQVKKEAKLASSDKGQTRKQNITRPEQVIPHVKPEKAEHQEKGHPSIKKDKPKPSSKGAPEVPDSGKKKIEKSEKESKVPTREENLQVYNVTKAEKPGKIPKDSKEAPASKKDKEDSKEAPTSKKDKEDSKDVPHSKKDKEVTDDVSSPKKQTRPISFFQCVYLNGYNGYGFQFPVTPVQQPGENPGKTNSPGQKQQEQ

Variants of: B1
Settings: with trdn_rabit TRDN

Variant | effect of a mutation on the interaction
S96A | decreasing interaction

Variants of: B2
Settings: with trdn_mouse Trdn

Variant | effect of a mutation on the interaction
S96A | decreasing interaction
